For this data set the following is noted: other: succinylation at K130.

As for “superoxide dismutase 2 (SOD2): CPT1A knockdown”, the degradation_or_half_life result was “no change”, the enzymatic_activity result is on record as “decreases” and the localisation_or_trafficking entry is recorded as “decreases”.
For superoxide dismutase 2 (SOD2): K130R, the enzymatic_activity entry is “decreases” and the localisation_or_trafficking result was “decreases”.
“superoxide dismutase 2 (SOD2): ST1326 (CPT1A inhibitor, 10 μM, 48 h)”: the enzymatic_activity entry was “decreases”.
